The values that follow come from patent US20040228849A1 (University of California, published 2004).

Series [1] concerns the target T1, Flag-IKKβ.
T1 chain: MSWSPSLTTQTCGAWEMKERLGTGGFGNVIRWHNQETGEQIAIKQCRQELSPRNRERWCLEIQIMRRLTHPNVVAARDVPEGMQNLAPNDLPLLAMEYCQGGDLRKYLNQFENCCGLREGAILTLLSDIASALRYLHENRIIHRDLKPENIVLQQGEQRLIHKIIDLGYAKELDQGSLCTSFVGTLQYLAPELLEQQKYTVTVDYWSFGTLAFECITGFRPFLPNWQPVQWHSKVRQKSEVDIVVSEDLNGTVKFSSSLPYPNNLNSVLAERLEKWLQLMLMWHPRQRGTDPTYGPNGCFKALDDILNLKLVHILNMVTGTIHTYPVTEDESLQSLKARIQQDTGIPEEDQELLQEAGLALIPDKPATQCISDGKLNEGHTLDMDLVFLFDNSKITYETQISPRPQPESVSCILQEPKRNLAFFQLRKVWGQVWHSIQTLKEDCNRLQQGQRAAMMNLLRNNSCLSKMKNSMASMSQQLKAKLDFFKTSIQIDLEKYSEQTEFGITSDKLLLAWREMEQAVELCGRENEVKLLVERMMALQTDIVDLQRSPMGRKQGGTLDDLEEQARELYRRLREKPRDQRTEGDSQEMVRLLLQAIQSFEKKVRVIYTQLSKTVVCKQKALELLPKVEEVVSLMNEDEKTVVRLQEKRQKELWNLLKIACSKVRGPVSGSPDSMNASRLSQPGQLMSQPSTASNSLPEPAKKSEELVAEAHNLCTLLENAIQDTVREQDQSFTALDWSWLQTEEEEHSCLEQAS

Series [2] deals with T2, Flag-IKKβ (human, UniProt O14920 1-756).
T2 construct: Transiently coexpressed in 293 cells
T2 sequence: T1 chain
Kind of series: coimmunoprecipitation from transfected 293 cells: anti-HA immune complexes probed with anti-Flag(M2).

Series [3] addresses T3, IKKβ (full length human IKKβ subunit) (human, UniProt O14920 1-756).
T3 construct: Endogenous protein of HeLa cells; also called endogenous IKKβ; 87 kDa protein
T3 sequence: T1 chain
The experiment in a line: immunoprecipitation experiments, transfected mammalian cells.

Series [4] concerns the molecule itself. The series is described as above.

Substitutions are numbered along the chain they refer to.

B1: HA-IKKα(LZ)^- (enzyme, not shown: small tags and cut ends)
chain: MERPPGLRPGAGGPWEMRERLGTGGFGNVCLYQHRELDLKIAIKSCRLELSTKNRERWCHEIQIMKKLNHANVVKACDVPEELNILIHDVPLLAMEYCSGGDLRKLLNKPENCCGLKESQILSLLSDIGSGIRYLHENKIIHRDLKPENIVLQDVGGKIIHKIIDLGYAKDVDQGSLCTSFVGTLQYLAPELFENKPYTATVDYWSFGTMVFECIAGYRPFLHHLQPFTWHEKIKKKDPKCIFACEEMSGEVRFSSHLPQPNSLCSLIVEPMENWLQLMLNWDPQQRGGPVDLTLKQPRCFVLMDHILNLKIVHILNMTSAKIISFLLPPDESLHSLQSRIERETGINTGSQELLSETGISLDPRKPASQCVLDGVRGCDSYMVYLFDKSKTVYEGPFASRSLSDCVNYIVQDSKIQLPIIQLRKVWAEAVHYVSGLKEDYSRLFQGQRAAMLSLLRYNANSTKMKNTSISASQQLKAKLEFFHKSIQLDLERYSEQMTYGISSEKMLKAWKEMEEKAIHYAEVGVIGYLEDQIMSLHAEIMELQKSPYGRRQGDLMESLEQRAIDLYKQLKHRPSDHSYSDSTEMVKIIVHTVQSQDRVLKERFGHLSKLLGCKQKIIDLLPKVEVALSNIKEADNTVMFMQGKRQKEIWHLLKIACTQSSARSLVGSSLEGAVTPQAYAWLAPDLAEHDHSLSCVVTPQDGETSAQMIEENLNCLGHLSTIIHEANEEQGNSMMNLDWSWLTE
notes: Leucine zipper mutant of IKKα; also called IKKα(LZ)^- mutant; IKKα LZ^- mutant
B1: in the series with Flag-IKKβ [1], the “IKK activity isolated by immunoprecipitation with anti-HA (IκB kinase activity)” value was “had no effect on the very low activity that coprecipitated with HA-IKKα(LZ)^-”. Also, in the series with Flag-IKKβ [2], the binding result is on record as “no binding”.

B2: IKKα (full length human IKKα subunit) (enzyme)
chain: B1 chain with S462L, S469L
notes: Endogenous protein of HeLa or 293 cells; also called endogenous IKKα; 85 kDa protein
For the molecule B2, the binding result in series [3] and in series [4] was “binds” each time.
